The values below come from patent publication US20150030595A1 (ANTIBODY AND RECEPTOR THERAPEUTICS, published 2015).

A word on the Kd: it is a measure of binding affinity in units of concentration. For orientation: koff means the first-order rate constant of dissociation. The term kon denotes the second-order rate constant of association.

B2: ACVR2B-Fc fusion protein (Fc fusion, not shown: a dimerising Fc or GST; small tags and cut ends)
chain: SGRGEAETRECIYYNANWELERTNQSGLERCEGEQDKRLHCYASWRNSSGTIELVKKGCWLDDFNCYDRQECVATEENPQVYFCCCEGNFCNERFTHLPEAGGPEVTYEPPPTAPTLLT
notes: also called water-soluble ACVR2B
B6: DLK1-Fc fusion protein (Fc fusion, not shown: a dimerising Fc or GST)
chain: AECFPACNPQNGFCEDDNVCRCQPGWQGPLCDQCVTSPGCLHGLCGEPGQCICTDGWDGELCDRDVRACSSAPCANNGTCVSLDDGLYECSCAPGYSGKDCQKKDGPCVINGSPCQHGGTCVDDEGRASHASCLCPPGFSGNFCEIVANSCTPNPCENDGVCTDIGGDFRCRCPAGFIDKTCSRPVTNCASSPCQNGGTCLQHTQVSYECLCKPEFTGLTCVKKRALSPQQVTRLPSGYGLAYRLTPGVHELPVQQPEHRILKVSMKELNKKTPLLTEG
notes: also called DLK-Fc

The assay “DLK1-Fc fusion protein” deals with B6. The assay can be described thus: SPR (ProteOn XPR36).
Assay [1] concerns the target T1, EGF5-6-Fc (DLK1 deletion mutant without the 1st to 4th EGF-like repeat domains) (human, UniProt P80370 170-302).
T1 construct: also called 5M-Fc; not shown: human antibody Fc region of the pYK602-Fc vector and any SfiI-junction residues
T1 sequence: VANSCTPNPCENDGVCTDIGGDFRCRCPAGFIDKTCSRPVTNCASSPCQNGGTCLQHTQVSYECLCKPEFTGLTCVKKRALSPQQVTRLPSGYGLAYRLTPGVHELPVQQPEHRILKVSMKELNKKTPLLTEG
The assay can be described thus: SPR (ProteOn XPR36), ACVR2B-Fc coated on the chip, Fc channel as reference. The method, then: (§1) This experiment was performed using a ProteOn XPR36 instrument (Bio-Rad). First, a sensor chip (GLC) was activated by reacting 0.1 M EDC and 0.025 M sulfo-NHS (Bio-Rad) for 60 seconds. […] The coating procedure was completed by allowing 1 M ethanolamine-HCl) (pH 8.5) to flow at the coated chip for 200 seconds. To test the bound proteins, the chip was rotated at an angle of 90°, and stabilized by allowing DPBST (PBS with 0.005% Tween 20) to flow on the chip for 30 minutes.

For assay [2], the target named is T2, C-terminally active myostatin (R&D systems) (UniProt O14793 267-375, limits assumed).
T2 construct: mature
T2 sequence (looked up): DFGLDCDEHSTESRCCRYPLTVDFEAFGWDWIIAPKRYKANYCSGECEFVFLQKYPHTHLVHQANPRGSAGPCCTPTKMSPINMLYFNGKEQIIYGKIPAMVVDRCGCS
Nature of the assay: ELISA, coating 1 ug/ml myostatin, binding 10 nM, anti-human Fc HRP. Background: An ELISA detects its analyte on a solid surface through an enzyme-linked reagent.

For assay [3], the target named is B2. The assay can be described thus: SPR (ProteOn XPR36), ACVR2B-Fc coated on the chip, Fc channel as reference. On the procedure: as §1
The target of assay [4] is T2, C-terminally active myostatin (R&D …). The assay can be described thus: ELISA on coated myostatin (1 ug/ml), Fc-HRP.
The target in assay [5] is B2. The assay can be described thus: SPR (ProteOn XPR36), ACVR2B-Fc coated. The method, then: as §1
Assay [6] deals with B2. The assay can be described thus: SPR (ProteOn XPR36), ACVR2B-Fc coated, in the presence of B09.
For assay [7], the target named is T2, C-terminally active myostatin (R&D …). Nature of the assay: ELISA on coated myostatin, one site binding (hyperbola) fit. On the procedure: An immunoplate was coated overnight with 1 μg/ml of C-terminally active myostatin (R&D systems) at 4° C., washed three times with 0.05% PBST Tween 20, and then blocked with 4% skim milk/0.05% PBST Tween 20 at room temperature for 30 minutes. […] Finally, when the reaction was blocked with 2.5 M H₂SO₄, the optical densities were measured and analyzed at 420 nm.
Based on the experiment, a KD value was also determined by analyzing one site binding (hyperbola) using a GraphPad Reism 4 program.

B1: human antibody B09 (full-length IgG) (antibody, V domains shown)
VH: QMQLVESGGRLVRPGGSLRLSCAASGFPFTSYAMNWVRQTPGKGLEWVSTITATSGKTYYADSVKGRFTISRDNSRNTLFLQMNSLRAEDTAVYYCVRGESCSGGACSDFDYWGQGALVTVSS
VL: QLVLTQPASVSGSPGQSVTISCTGTSSDIGRYNRVSWYQHHPGKAPKLILNDVTTRPSGFSNRFSGSKSGNTASLTISGLQAEDEADYSCGSYAGSYTYVFGTGTKVTVL
notes: Converted into full-length IgG with pNATAB H and pNATAB L vectors; also called B09 antibody; DLK1 antibody B09
For B1, in the assay with DLK1-Fc fusion protein, the dissociation constant Kd was found to be 10.9 pM, the koff was 6.49e-05 s⁻¹ and the kon turned out to be 3.41e+06 M⁻¹ s⁻¹.

B2: the binding result in assay [1] is given as “binds”.

B3: EGF6-Fc (Fc fusion)
chain: PVTNCASSPCQNGGTCLQHTQVSYECLCKPEFTGLTCVKKRALSPQQVTRLPSGYGLAYRLTPGVHELPVQQPEHRILKVSMKELNKKTPLLTEG
notes: also called 6M-Fc; not shown: human antibody Fc region of the pYK602-Fc vector and any SfiI-junction residues
As to B3, the binding result in assay [2] is given as “binds”; in the assay with ACVR2B-Fc fusion protein [3], “no binding”.

B4: EGF3-6-Fc (DLK1 deletion mutant without the 1st and 2nd EGF-like repeat domains) (Fc fusion)
chain: DVRACSSAPCANNGTCVSLDDGLYECSCAPGYSGKDCQKKDGPCVINGSPCQHGGTCVDDEGRASHASCLCPPGFSGNFCEIVANSCTPNPCENDGVCTDIGGDFRCRCPAGFIDKTCSRPVTNCASSPCQNGGTCLQHTQVSYECLCKPEFTGLTCVKKRALSPQQVTRLPSGYGLAYRLTPGVHELPVQQPEHRILKVSMKELNKKTPLLTEG
notes: also called 3M-Fc; not shown: human antibody Fc region of the pYK602-Fc vector and any SfiI-junction residues
For B4, the binding result (in assay [2]; in the assay with ACVR2B-Fc fusion protein [3]) was “binds” each time.

B5: ACVR1A-Fc (Fc fusion, UniProt Q04771 21-124, looked up)
chain: MEDEKPKVNPKLYMCVCEGLSCGNEDHCEGQQCFSSLSINDGFHVYQKGCFQVYEQGKMTCKTPPSPGQAVECCQGDWCNRNITAQLPTKGKSFPGTQNFHLEV
notes: Control; origin not described; not shown: Fc; not described
B5: the binding result in assay [4] is “no binding (tested: 1 nM)”.

In the assay with ACVR2B-Fc fusion protein [5], B6 gave a Kd of 1310 pM, a koff of 0.000434 s⁻¹ and a kon of 331000 M⁻¹ s⁻¹. Also, in the assay with ACVR2B-Fc fusion protein [6], the Kd was 407 pM, the koff is 0.000255 s⁻¹ and the kon is 626000 M⁻¹ s⁻¹. The affinity in assay [7], expressed as Kd, was 22800 pM.

B7: EGF4-6-Fc (Fc fusion)
chain: KDGPCVINGSPCQHGGTCVDDEGRASHASCLCPPGFSGNFCEIVANSCTPNPCENDGVCTDIGGDFRCRCPAGFIDKTCSRPVTNCASSPCQNGGTCLQHTQVSYECLCKPEFTGLTCVKKRALSPQQVTRLPSGYGLAYRLTPGVHELPVQQPEHRILKVSMKELNKKTPLLTEG
notes: also called 4M-Fc; not shown: human antibody Fc region of the pYK602-Fc vector and any SfiI-junction residues
Turning to B7, the binding result (in assay [2]; with ACVR2B-Fc fusion protein [3]) was “binds” in each case.

B8: JM-Fc (juxtamembrane region of DLK1, all six EGF-like repeat domains deleted) (Fc fusion)
chain: KKRALSPQQVTRLPSGYGLAYRLTPGVHELPVQQPEHRILKVSMKELNKKTPLLTEG
notes: also called juxtamembrane region (JM); not shown: human antibody Fc of the pYK602-Fc vector and the SfiI junction residues between JM and Fc
Consider B8, for which the binding result in assay [2] is on record as “binds”; with ACVR2B-Fc fusion protein [3] it was “no binding”.
